Test results as given in patent US20240024475A1 (CURE GENETICS, published 2024).

T1: recombinant human CD70 protein (Acrobiosystems: CDL-H82Q9) (human, UniProt P32970 39-193)
T1 construct: Bought from Acrobiosystems; The whole natural entry is named; also called human CD70His fusion protein; recombinant human CD70 antigen having a C-terminal human IgG Fc tag
T1 sequence (looked up): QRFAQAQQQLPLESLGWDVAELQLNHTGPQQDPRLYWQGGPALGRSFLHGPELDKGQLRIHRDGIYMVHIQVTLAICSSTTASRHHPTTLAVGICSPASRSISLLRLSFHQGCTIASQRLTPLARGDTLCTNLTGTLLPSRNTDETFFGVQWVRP


molecular target: T1, recombinant human CD70 protein …; test: flow cytometry: CAR on CD70-knockout T cells stained with biotinylated human CD70 protein (100 µg/ml) and PE-Streptavidin
Procedure: The expression of the CAR targeting CD70 prepared in example 5 in T cells in each group was detected by fluorescence antibody staining and flow cytometry. The specific steps were as follows: CAR-T cells targeting CD70 with lentivirus infection for 48 h, T cells without lentivirus infection and T-KO cells without lentivirus infection were respectively collected by centrifugation; biotinylated human CD70 protein (100 μg/ml) (Acrobiosystems: CDL-H82Q9) was added; and the mixture was incubated at 4° C. in the dark for 30 min, and then washed once with PBS after the incubation. After resuspending in an appropriate volume of PBS, a second antibody PE-Streptavidin (BD Biosciences: 554061) was added to the cells, and the mixture was incubated at 4° C. in the dark for 20 min, washed once with PBS and then resuspended in an appropriate volume of PBS. Finally, the expression efficiency of the CAR targeting CD70 on the surface of the T cells in which CD70 was knocked out was detected using a flow cytometer.

| Binder | POS (% of cells in the CD70-PE positive gate) |
| --- | --- |
| CD70KO-CAR-1E (receptor, The sheet names the CD70-knockout T cells that carry CD70-CAR-1E; also called CD70-CAR-1E) chimeric antigen receptor chain: EVQVVESGGGLVQAGGSLRLSCAASGFAFDDYAIGWFRQAPGKEQERVSCMSSSDGSTYYADSVKGRFTISSDNAKNTVYLQMNSLKPEDTAVYYCAAGVNYYREDGCPGALDYWGQGTQVTVSSTTTPAPRPPTPAPTIASQPLSLRPEACRPAAGGAVHTRGLDFACDIYIWAPLAGTCGVLLLSLVITLYCKRGRKKLLYIFKQPFMRPVQTTQEEDGCSCRFPEEEEGGCELRVKFSRSADAPAYKQGQNQLYNELNLGRREEYDVLDKRRGRDPEMGGKPRRKNPQEGLYNELQKDKMAEAYSEIGMKGERRRGKGHDGLYQGLSTATKDTYDALHMQALPPR | 63.9% |
| CD70KO-CAR-1G (receptor, The sheet names the CD70-knockout T cells that carry CD70-CAR-1G; also called CD70-CAR-1G) chimeric antigen receptor chain: QLQLVESGGGLVQLGGSLTLSCTASGIIFNSDYVGWYRQAPGSDRELVALTSNMRTNYADSVEGRFTISRDNAKNTVYLQMNSLKPEDTAVYYCNVNRMTSYGPRDYWGQGTQVTVSSTTTPAPRPPTPAPTIASQPLSLRPEACRPAAGGAVHTRGLDFACDIYIWAPLAGTCGVLLLSLVITLYCKRGRKKLLYIFKQPFMRPVQTTQEEDGCSCRFPEEEEGGCELRVKFSRSADAPAYKQGQNQLYNELNLGRREEYDVLDKRRGRDPEMGGKPRRKNPQEGLYNELQKDKMAEAYSEIGMKGERRRGKGHDGLYQGLSTATKDTYDALHMQALPPR | 57.5% |
| CD70KO-CAR-3H (receptor, The sheet names the CD70-knockout T cells that carry CD70-CAR-3H; also called CD70-CAR-3H) chimeric antigen receptor chain: QLQLVESGGGLVQPGGSLRLSCAASGNILRFNAVGWYRQAPGKQRDLVAAMAGARTNYADSVEGRFTISGNNANNTVYLQMNSLKPEDTGVYYCGADRVYGPPYEYGGRGTQVTVLSTTTPAPRPPTPAPTIASQPLSLRPEACRPAAGGAVHTRGLDFACDIYIWAPLAGTCGVLLLSLVITLYCKRGRKKLLYIFKQPFMRPVQTTQEEDGCSCRFPEEEEGGCELRVKFSRSADAPAYKQGQNQLYNELNLGRREEYDVLDKRRGRDPEMGGKPRRKNPQEGLYNELQKDKMAEAYSEIGMKGERRRGKGHDGLYQGLSTATKDTYDALHMQALPPR | 70.8% |
| CD70KO-CAR-5A (receptor, The sheet names the CD70-knockout T cells that carry CD70-CAR-5A; also called CD70-CAR-5A) chimeric antigen receptor chain: EVQLVESGGGLVQAGGSLRLSCAASESIFNNYVMAWYRQPPGKQREAVAQISTDGSAYYQDRVKGRFTISRDNAKNLVNLQMSSLKPEDTAVYYCTAGLQYWGQGTQVTVSSTTTPAPRPPTPAPTIASQPLSLRPEACRPAAGGAVHTRGLDFACDIYIWAPLAGTCGVLLLSLVITLYCKRGRKKLLYIFKQPFMRPVQTTQEEDGCSCRFPEEEEGGCELRVKFSRSADAPAYKQGQNQLYNELNLGRREEYDVLDKRRGRDPEMGGKPRRKNPQEGLYNELQKDKMAEAYSEIGMKGERRRGKGHDGLYQGLSTATKDTYDALHMQALPPR | 74.9% |
| CD70KO-CAR-5B (receptor, The sheet names the CD70-knockout T cells that carry CD70-CAR-5B; also called CD70-CAR-5B) chimeric antigen receptor chain: QVQLVESGGGLVQAGGSLRLSCAASGFTFDDYAIGWFRQAPGKEPEGVSCFRSSDGNIYYSDSVRGRFTISSDNAKNTVYLQMNRLKPEDTAVYYCAAYSVLLRPWVLCEGSYDYWGQGTQVTVSSTTTPAPRPPTPAPTIASQPLSLRPEACRPAAGGAVHTRGLDFACDIYIWAPLAGTCGVLLLSLVITLYCKRGRKKLLYIFKQPFMRPVQTTQEEDGCSCRFPEEEEGGCELRVKFSRSADAPAYKQGQNQLYNELNLGRREEYDVLDKRRGRDPEMGGKPRRKNPQEGLYNELQKDKMAEAYSEIGMKGERRRGKGHDGLYQGLSTATKDTYDALHMQALPPR | 57.8% |
| CD70KO-CAR-5H (receptor, The sheet names the CD70-knockout T cells that carry CD70-CAR-5H; also called CD70-CAR-5H) chimeric antigen receptor chain: EVQLVESGGGMVQAGGSLRLSCAAPGKIFSFYFMGWYRQAPGKQRELVALITGDGRTNYADSVEGRFTISRDNAKNTVYLQMNSLKPEDTAVYYCYADVFARAGRDEYWGQGTQVSVSSTTTPAPRPPTPAPTIASQPLSLRPEACRPAAGGAVHTRGLDFACDIYIWAPLAGTCGVLLLSLVITLYCKRGRKKLLYIFKQPFMRPVQTTQEEDGCSCRFPEEEEGGCELRVKFSRSADAPAYKQGQNQLYNELNLGRREEYDVLDKRRGRDPEMGGKPRRKNPQEGLYNELQKDKMAEAYSEIGMKGERRRGKGHDGLYQGLSTATKDTYDALHMQALPPR | 58.9% |
| CD70KO-CAR-7D (receptor, The sheet names the CD70-knockout T cells that carry CD70-CAR-7D; also called CD70-CAR-7D) chimeric antigen receptor chain: EVQLVESGGGLVQAGGSLRLSCAASGFTFDDYAIGWFRQAPGKEQEGVSCIRRSDGSTWYANSVKGRFTISNDNAKNTVYLQMNSLKPEDTAVYYCAVDRYGQSWHEGRGALDAWGQGTLVTVSSTTTPAPRPPTPAPTIASQPLSLRPEACRPAAGGAVHTRGLDFACDIYIWAPLAGTCGVLLLSLVITLYCKRGRKKLLYIFKQPFMRPVQTTQEEDGCSCRFPEEEEGGCELRVKFSRSADAPAYKQGQNQLYNELNLGRREEYDVLDKRRGRDPEMGGKPRRKNPQEGLYNELQKDKMAEAYSEIGMKGERRRGKGHDGLYQGLSTATKDTYDALHMQALPPR | 78.4% |
| CD70KO-CAR-L2 (receptor, The sheet names the CD70-knockout T cells that carry CD70-CAR-L2; also called CD70-CAR-L2) chimeric antigen receptor chain: EVQLVESGGGLVQAGGSLRLSCAASGFTVDDYVIGWFRQAPGKEHEGVSCISSNDGSTWYADSVKGRFTISSDNAKNTMYLQMNSLKPEDTAVYYCAAKYAPYGLEYWEGGMDYWGKGTLVTVSSTTTPAPRPPTPAPTIASQPLSLRPEACRPAAGGAVHTRGLDFACDIYIWAPLAGTCGVLLLSLVITLYCKRGRKKLLYIFKQPFMRPVQTTQEEDGCSCRFPEEEEGGCELRVKFSRSADAPAYKQGQNQLYNELNLGRREEYDVLDKRRGRDPEMGGKPRRKNPQEGLYNELQKDKMAEAYSEIGMKGERRRGKGHDGLYQGLSTATKDTYDALHMQALPPR | 62.6% |
| CD70KO-CAR-L1 (receptor, The sheet names the CD70-knockout T cells that carry CD70-CAR-L1; also called CD70-CAR-L1) chimeric antigen receptor chain: EVQVVESGGGLVQAGGSLRLSCAASGRTFSSYAMGWVRQAPGKDQEFVAAINWSDGSTYYADSVKGRFTIARDNAKNTAFLQMNSLKPEDTAVYYCAAGCCGVADAPLNALDAWGQGTLVTVSSTTTPAPRPPTPAPTIASQPLSLRPEACRPAAGGAVHTRGLDFACDIYIWAPLAGTCGVLLLSLVITLYCKRGRKKLLYIFKQPFMRPVQTTQEEDGCSCRFPEEEEGGCELRVKFSRSADAPAYKQGQNQLYNELNLGRREEYDVLDKRRGRDPEMGGKPRRKNPQEGLYNELQKDKMAEAYSEIGMKGERRRGKGHDGLYQGLSTATKDTYDALHMQALPPR | 82.5% |
